Where no end group is shown, it is not given here.

Consider nine molecules from US20180141989A1 (BOARD OF REGENTS OF THE UNIVERSITY OF OKLAHOMA, published 2018).

The target of test [1] is MBP-RAMP2 ECD [L106R]-(GS)5-CLR ECD-H6 fusion protein (human) (UniProt O60895). Kind of test: FP (anisotropy) competition: displaces FITC-Ahx-AM(37-52)NH2[S45W,Q50W] probe (7 nM) from MBP-RAMP2 ECD[L106R]-(GS)5-CLR ECD-H6 (110 nM) [I-K) panel K].
Test [2] has as its target T1, MBP-RAMP1 ECD-(GS)5-CLR ECD-H6 fusion protein (human, UniProt O60894 24-111; Q16602 29-144).
T1 construct: range 24-111;range 29-144; Tethered ECD fusion made in E. coli; used in the FP assay at 15 nM; also called MBP-hRAMP1.24-111-(Gly-Ser)5-hCLR.29-144-H6
Kind of test: FP (anisotropy) competition: displaces FITC-Ahx-AM(37-52)NH2[S45W,Q50W] probe (7 nM) from MBP-RAMP1 ECD-(GS)5-CLR ECD-H6 (15 nM) [I-J) lower graph]. The procedure: (§1) Fluorescence polarization peptide binding assay. […] The reactions (50 μL) were incubated for 2 hours at room temperature to reach equilibrium, and the anisotropy was measured in black half-area 96-well plates using a BMG LABTECH's POLARstar® Omega plate reader (Ortenberg, Germany). The reaction buffer was 50 mM HEPES, pH 7.5, 150 mM NaCl, 0.5 mg/ml fatty acid-free BSA, 0.5 mM EDTA, 0.5 mM maltose. KI values were calculated using nonlinear regression fitting of the competition curves to the exact analytical equations of Roehrl et al. (Biochemistry (2004) 43:16056-66) using GraphPad Prism 5.0 (GraphPad Software, San Diego Calif.).

Test [3] addresses MBP-RAMP2 ECD [L106R]-(GS)5-CLR ECD-H6 fusion protein (human) (UniProt O60895). Kind of test: FP competition vs FITC-AM W/W probe, purified ECD fusion.
Test [4] has as its target T1, MBP-RAMP1 ECD-(GS)5-CLR ECD-H6 fusion …. The description is as above. The procedure:
as §1
(§2) The large size difference between the MBP-RAMP ECD-CLR ECD fusion proteins (˜65 kDa) and the probe (˜2.5 kDa) ensures a significant anisotropy difference between bound and free states of the probe. […] Kd values for the probe at each of the tethered ECD fusion proteins were determined in equilibrium saturation binding experiments (data not shown), and KI values were determined for unlabeled peptides in equilibrium competition experiments (Table 1; FIGS. 2-5). The data were analyzed according to exact analytical equations using non-linear regression curve fitting in GraphPad Prism 5.0 (GraphPad Software) via user-defined equations.

The target of test [5] is MBP-RAMP2 ECD [L106R]-(GS)5-CLR ECD-H6 fusion protein (human) (UniProt O60895). The test is described as follows: AlphaLISA competition: displaces Biotin-AM probe (25 nM) from the RAMP2-CLR ECD fusion protein (5 nM). In general terms: Bead proximity is the source of the signal in Alpha formats.
The target of test [6] is T1, MBP-RAMP1 ECD-(GS)5-CLR ECD-H6 fusion …. Kind of test: AlphaLISA competition: displaces Biotin-CGRP probe (50 nM) from the RAMP1-CLR ECD fusion protein (5 nM). The procedure: (§3) The probes were as described in Moad and Pioszak (Protein Sci. (2013) 22:1775-85). The reactions were incubated for 5 hours at room temperature to reach equilibrium, and the luminescence was measured in white 384-well plates using a BMG LABTECH's POLARstar® Omega plate reader (Ortenberg, Germany). The reaction buffer was 50 mM MOPS, pH 7.4, 150 mM NaCl, 7 mg/ml fatty acid-free BSA, and the streptavidin-coated donor beads and MBP-antibody coated acceptor beads were at 15 μg/ml each. IC₅₀ values were calculated using nonlinear regression fitting of the competition curves to a three-parameter, one-site competitive binding equation in GraphPad Prism 5.0 (GraphPad Software, San Diego Calif.).

The target in test [7] is MBP-RAMP2 ECD [L106R]-(GS)5-CLR ECD-H6 fusion protein (human) (UniProt O60895). The test is described as follows: FP (anisotropy) competition: displaces FITC-Ahx-AM(37-52)NH2[S45W,Q50W] probe (7 nM) from MBP-RAMP2 ECD[L106R]-(GS)5-CLR ECD-H6 (110 nM) [A-C) panel A].
Test [8] has as its target T1, MBP-RAMP1 ECD-(GS)5-CLR ECD-H6 fusion …. The test is described as follows: FP (anisotropy) competition: displaces FITC-Ahx-AM(37-52)NH2[S45W,Q50W] probe (7 nM) from MBP-RAMP1 ECD-(GS)5-CLR ECD-H6 (15 nM) [A-C) panel B]. The procedure:
as §1

For test [9] the target is unchanged. Kind of test: ratio of FP KI values at the two ECD complexes. As for the experimental part: as §1, §2
For test [10] the target is unchanged. The test is described as follows: FP (anisotropy) competition: displaces FITC-Ahx-AM(37-52)NH2[S45W,Q50W] probe (7 nM) from MBP-RAMP1 ECD-(GS)5-CLR ECD-H6 (15 nM) [F-H) panel F]. The procedure: as §1
Test [11] addresses MBP-RAMP2 ECD [L106R]-(GS)5-CLR ECD-H6 fusion protein (human) (UniProt O60895). The test is described as follows: ratio of FP KI values at the two ECD complexes.
Test [12] shares this target. Kind of test: FP (anisotropy) competition: displaces FITC-Ahx-AM(37-52)NH2[S45W,Q50W] probe (7 nM) from MBP-RAMP2 ECD[L106R]-(GS)5-CLR ECD-H6 (110 nM) [A-C) panel B].
Test [13] shares this target. The test is described as follows: AlphaLISA competition vs Biotin-AM probe.
Test [14] addresses T2, MBP-RAMP1 ECD-(GS)5-CTR ECD-H6 fusion protein (human, UniProt O60894 27-118; P30988 34-141, limits assumed).
T2 construct: extracellular domain; CTR-based proteins were produced in HEK293T cells (N-glycosylated); also called RAMP1-CTR ECD; RAMP1-CTR
Kind of test: AlphaLISA competition vs Biotin-AC413 probe, purified AMY1 ECD fusion. As for the experimental part:
as §3, with “A single representative experiment conducted with duplicate samples is shown. […]” for “The probes were as described in Moad and Pioszak (Protein Sci. (2013) 22:1775-85).”, “BSA” for “BSA,”

For test [15], the target named is T1, MBP-RAMP1 ECD-(GS)5-CLR ECD-H6 fusion …. The test is described as follows: FP (anisotropy) competition: displaces FITC-Ahx-AM(37-52)NH2[S45W,Q50W] probe (7 nM) from MBP-RAMP1 ECD-(GS)5-CLR ECD-H6 (15 nM) [D-E) panel D]. The procedure: as §1
The target in test [16] is MBP-RAMP2 ECD [L106R]-(GS)5-CLR ECD-H6 fusion protein (human) (UniProt O60895). Kind of test: FP (anisotropy) competition: displaces FITC-Ahx-AM(37-52)NH2[S45W,Q50W] probe (7 nM) from MBP-RAMP2 ECD[L106R]-(GS)5-CLR ECD-H6 (110 nM) [G-H) panel G].
The target in test [17] is T1, MBP-RAMP1 ECD-(GS)5-CLR ECD-H6 fusion …. The test is described as follows: FP (anisotropy) competition: displaces FITC-Ahx-AM(37-52)NH2[S45W,Q50W] probe (7 nM) from MBP-RAMP1 ECD-(GS)5-CLR ECD-H6 (15 nM) [A-C) panel C]. The procedure:
as §1
as §1, with “Single representative experiments conducted with duplicate samples are shown.” for “Fluorescence polarization peptide binding assay.”, “reactions” for “reactions (50 μL)”

Test [18] concerns the target MBP-RAMP2 ECD [L106R]-(GS)5-CLR ECD-H6 fusion protein (human) (UniProt O60895). Kind of test: AlphaLISA or AlphaScreen competition assays.

Sequence of MBP-RAMP2 ECD [L106R]-(GS)5-CLR ECD-H6 fusion protein (human) (O60895 other isoform, or with tags, fused parts or gaps L106R L106R): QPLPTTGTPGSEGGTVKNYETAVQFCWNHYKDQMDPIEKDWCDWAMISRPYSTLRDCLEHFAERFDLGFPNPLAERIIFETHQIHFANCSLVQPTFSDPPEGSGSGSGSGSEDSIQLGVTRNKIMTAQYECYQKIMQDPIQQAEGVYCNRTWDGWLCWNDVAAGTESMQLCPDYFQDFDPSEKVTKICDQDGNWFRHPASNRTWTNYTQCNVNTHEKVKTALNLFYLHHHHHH
T1 sequence (O60894 other isoform, or with tags, fused parts or gaps limits assumed, form in doubt): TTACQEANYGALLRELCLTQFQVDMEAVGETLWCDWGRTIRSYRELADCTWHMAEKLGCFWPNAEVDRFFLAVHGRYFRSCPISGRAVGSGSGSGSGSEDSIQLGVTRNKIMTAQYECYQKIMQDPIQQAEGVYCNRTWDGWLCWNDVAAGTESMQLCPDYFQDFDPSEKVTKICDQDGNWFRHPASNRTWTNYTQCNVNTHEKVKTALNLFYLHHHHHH
T2 sequence (O60894 other isoform, or with tags, fused parts or gaps limits assumed): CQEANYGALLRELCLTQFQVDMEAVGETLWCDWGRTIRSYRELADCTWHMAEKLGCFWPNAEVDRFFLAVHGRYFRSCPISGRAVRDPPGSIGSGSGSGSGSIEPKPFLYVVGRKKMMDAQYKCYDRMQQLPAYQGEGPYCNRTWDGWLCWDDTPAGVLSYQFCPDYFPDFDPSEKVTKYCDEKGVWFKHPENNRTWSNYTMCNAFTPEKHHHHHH

B1: AM(37-52) D39W/Q50W (peptide)
peptide: DKWNVAPRSKISPWGY-NH2
notes: also called AM(37-52)NH2 [D39W, Q50W]
With B1, the IC50 (read off the curve) is 300 nM in [1] and roughly 400 nM in test [2].

B2: AM(37-52)NH2 [S45W, Q50W] (peptide)
peptide: DKDNVAPRWKISPWGY-NH2
notes: also called S45W/Q50W double mutant
For B2, the Ki in [3] turned out to be 81.3 nM; in test [4], 44.7 nM. Moreover, the figures for the pKI in test [3] and in test [4] were 7.09 and 7.35, respectively. Also, the IC50 in test [5] is 20 nM; in test [6], 17 nM. Further, the IC50 (read off the curve) in test [7] was 200 nM; in [8] it was roughly 100 nM.

B3: AM(37-52)NH2[S45T, K46L, Q50W] (peptide)
peptide: DKDNVAPRTLISPWGY-NH2
In test [3], B3 yielded a Ki of 1570 nM and a pKI of 5.8. In addition, the “Receptor Selectivity (fold, over RAMP2-CLR ECD)” value in test [9] worked out at 24 fold. In addition, in test [4], the affinity corresponds to a Ki of 65.6 nM and the pKI was 7.18. In addition, the “IC50 (read off the curve)” value in test [10] is roughly 200 nM.

B4: AM(37-52)NH2 [Q50F] (peptide)
peptide: DKDNVAPRSKISPFGY-NH2
With B4, in test [11], the Receptor Selectivity (fold, over RAMP1-CLR ECD) was found to be 5 fold. In addition, in [3], the Ki worked out at 2140 nM and the pKI turned out to be 5.67. In test [4], affinity was put at a Ki of 10500 nM and the pKI came out at 4.98. In test [12], this molecule came in with an IC50 (read off the curve) of 4000 nM.

B5: AM(37-52)NH2 [Q50W] (peptide)
peptide: DKDNVAPRSKISPWGY-NH2
The molecule B5 gave a fold increase in affinity (over AM(37-52)NH2, implied) in test [13] of 100 fold. In addition, the Ki in test [3] came out at 316 nM; in test [4], 501 nM. In addition, the pKI in [3] is 6.5; in [4], 6.3. Moreover, the IC50 in [5] was 44 nM; in [6], 400 nM. The IC50 (read off the curve) in test [12] was 600 nM; in [8], roughly 1000 nM.

B6: AM(37-52)NH2 [S45W, K46L, Q50W, Y52F] (peptide)
peptide: DKDNVAPRWLISPWGF-NH2
In test [3], B6 showed a Ki of 4070 nM and a pKI of 5.39. Further, in test [9], the “Receptor Selectivity (fold, over RAMP2-CLR ECD)” value stood at 2130 fold. In test [4], this molecule had a Ki of 1.91 nM and a pKI of 8.72. Further, in test [14], the IC50 worked out at 16000 nM. Also, the “IC50 (read off the curve)” value in [15] was roughly 20 nM.

B7: AM(37-52)NH2 [S45W, K46L, S48G, Q50W, Y52F] (peptide)
peptide: DKDNVAPRWLIGPWGF-NH2
In the case of B7, in test [3], the Ki was 1250 nM and the pKI turned out to be 5.9. Besides, the IC50 (read off the curve) in [16] was found to be 200 nM.

B8: CGRP(27-37)NH2 [N31D, S34P, K35W, A36S] (peptide)
peptide: FVPTDVGPWSF-NH2
Take B8: in test [3], the Ki is 2450 nM and the pKI turned out to be 5.61. Moreover, the “Receptor Selectivity (fold, over RAMP2-CLR ECD)” value in [9] stood at 1860 fold. In test [4], this molecule came in with a Ki of 1.32 nM and a pKI of 8.88. Moreover, in test [14], the IC50 is 260 nM. Besides, the “IC50 (read off the curve)” value in test [17] was roughly 10 nM.

B9: AM(37-52)NH2 (peptide)
peptide: DKDNVAPRSKISPQGY-NH2
With B9, the IC50 in test [18] fell in the range of 5000 to 15000 nM. In [3], the Ki came to 20400 nM and the pKI was found to be 4.69. Also, the IC50 in test [5] was 5000 nM.

Broadly, the Ki is the dissociation constant of the complex between target and ligand, obtained from inhibition or displacement. As a reminder, the IC50 is the concentration that gives 50% inhibition.
